Reference: patent US12303551B2, “Cellular immunotherapy compositions and uses thereof” (CERO THERPEUTICS HOLDINGS, INC., priority 2018, dated 2025)

Test system: E6/E7-specific human TCR/NFAT reporter cell line
Test: Antigen cross-presentation assay with E6/E7 TCR Jurkat NFAT luciferase reporter cells
Type: cell-based
Details: CD4+ and CD8+ CER T cells after phagocytosing HPV+ tumor cells; compared to mock transduced T cells
Experimental: In a phagocytic assay step, CD4+ and CD8+ T cell lines expressing CERs were co-cultured with the CD4+ and CD8+ T cells expressing HPV E7 specific TCR and SCC152 (HPV+) cells overnight. The following day CER+ T cells were subsequently FACS-sorted. FACS plot depicts CT violet^+ CERs. Following FACS purification, antigen presentation of HPV oncoproteins was evaluated. CER-expressing cells were co-cultured at a 1:2 ratio with E6 & E7-specific TCR/NFAT reporter cell lines, and NFAT activation measured over time using a plate reader.
CER-expressing CD4^+ and CD8^+ T cell lines, after phagocytosing HPV^+ tumor cells, are capable of cross-presentation of E7 HPV oncoproteins to E7 TCR/NFAT reporter-expressing T cells as measured by NFAT activation.
CD4+ and CD8+ CER-expressing T cell lines were established from human PBMCs. […]
For assessing MHC-I cross-presentation, SCC152 HPV^+ cells were co-cultured overnight with CER123-expressing CD4+ and CD8+ T cells or mock-transduced (vector only) T cells in the presence of T cells expressing an E7-specific TCR. […] NFAT activation was assessed at serial time points (0, 6, 12, 24, and 72 hrs) by measuring luciferase activity in cell culture supernatants. […] Induction of E711-19-specific Jurkat T cells were quantified by luminescence of NFAT signaling at indicated time points and compared to Mock (vector-alone) transduced T cells (FIG. 63).

B1: CER123: Chimeric engulfment receptor: Tim4 binding, Tim4 transmembrane, TLR2 and TRAF6 signaling; SEQ ID NO: 164 (protein)
chain: MSKGLLLLWLVTELWWLYLTPAASEDTIIGFLGQPVTLPCHYLSWSQSRNSMCWGKGSCPNSKCNAELLRTDGTRIISRKSTKYTLLGKVQFGEVSLTISNTNRGDSGVYCCRIEVPGWFNDVKKNVRLELRRATTTKKPTTTTRPTTTPYVTTTTPELLPTTVMTTSVLPTTTPPQTLATTAFSTAVTTCPSTTPGSFSQETTKGSAFTTESETLPASNHSQRSMMTISTDIAVLRPTGSNPGILPSTSQLTTQKTTLTTSESLQKTTKSHQINSRQTILIIACCVGFVLMVLLFLAFLHRFHGLWYMKMMWAWLQAKRKPRKAPSRNICYDAFVSYSERDAYWVENLMVQELENFNPPFKLCLHKRDFIPGKWIIDNIIDSIEKSHKTVFVLSENFVKSEWCKYELDFSHFRLFDENNDAAILILLEPIEKKAIPQRFCKLRKIMNTKTYLEWPMDEAQREGFWVNLRAAIKSMSLLNCENSCGSSQSESDCCVAMASSCSAVTKDDSVGGTASTGNLSSSFMEEIQGYDVEFDPPLESKYECPICLMALREAVQTPCGHRFCKACIIKSIRDAGHKCPVDNEILLENQLFPDNFAKREILSLMVKCPNEGCLHKMELRHLEDHQAHCEFALMDCPQCQRPFQKFHINIHILKDCPRRQVSCDNCAASMAFEDKEIHDQNCPLANVICEYCNTILIREQMPNHYDLDCPTAPIPCTFSTFGCHEKMQRNHLARHLQENTQSHMRMLA
modifications: CER123, amino acids 1-22 are signal peptide
cross-presentation of HPV E7 oncoproteins (NFAT luminescence): enhanced cross-presentation efficiency
